Test results published in article PMC5587591, “Enoyl-CoA hydratase-1 regulates mTOR signaling and apoptosis by sensing nutrients” (Nature Communications, 2017).
Substitutions are numbered along the chain they refer to. Names may count otherwise.

T1: SIRT3 (Homo sapiens, UniProt Q9NTG7)
T1 construct: recombinant from E. coli (DE3)
T1 sequence (Q9NTG7 102-399): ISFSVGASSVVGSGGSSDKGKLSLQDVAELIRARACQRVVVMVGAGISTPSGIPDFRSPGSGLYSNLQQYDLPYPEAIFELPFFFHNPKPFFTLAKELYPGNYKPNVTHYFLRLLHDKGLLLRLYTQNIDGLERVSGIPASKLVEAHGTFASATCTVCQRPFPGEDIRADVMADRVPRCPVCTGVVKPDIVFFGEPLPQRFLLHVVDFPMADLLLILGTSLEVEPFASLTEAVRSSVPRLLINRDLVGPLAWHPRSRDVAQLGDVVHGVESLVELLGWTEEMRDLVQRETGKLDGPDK

B1: ECHS1 (enoyl-CoA hydratase-1) (Homo sapiens) (protein)
chain: ASGANFEYIIAEKRGKNNTVGLIQLNRPKALNALCDGLIDELNQALKTFEEDPAVGAIVLTGGDKAFAAGADIKEMQNLSFQDCYSSKFLKHWDHLTQVKKPVIAAVNGYAFGGGCELAMMCDIIYAGEKAQFAQPEILIGTIPGAGGTQRLTRAVGKSLAMEMVLTGDRISAQDAKQAGLVSKICPVETLVEEAIQCAEKIASNSKIVVAMAKESVNAAFEMTLTEGSKLEKKLFYSTFATDDRKEGMTAFVEKRKANFKDQ
B2: ECHS1 (enoyl-CoA hydratase-1) (Homo sapiens; K101R) (protein)
chain: B1 chain with K74R
B3: ECHS1 (enoyl-CoA hydratase-1) (Homo sapiens; K101Q) (protein)
chain: B1 chain with K74Q

Columns and labels:
SIRT3 = target: T1, SIRT3; experiment: deacetylation of AcK101 ECHS1 peptide, MS; assay type: biochemical; details: 1 mM NAD+, 30 mM HEPES pH 7.0, 37 °C; acetylated 9-residue ECHS1 peptide as co-substrate
purified protein = substrate: C/C=C/C(=O)SCCNC(=O)CCNC(=O)[C@H](O)C(C)(C)COP(=O)(O)OP(=O)(O)OC[C@H]1O[C@@H](n2cnc3c(N)ncnc32)[C@H](O)[C@@H]1OP(=O)(O)O; experiment: purified protein; assay type: biochemical, Homo sapiens; details: 50 mM Tris-HCl pH 8.0

| Molecule | deacetylation of AcK101 ECHS1 peptide, MS (SIRT3) | Km (purified protein) |
| --- | --- | --- |
| NC(=O)c1ccc[n+]([C@@H]2O[C@H](COP(=O)(O)OP(=O)(O)OC[C@H]3O[C@@H](n4cnc5c(N)ncnc54)[C@H](O)[C@@H]3O)[C@@H](O)[C@H]2O)c1 [NAD^+] | SIRT3 deacetylated synthetic AcK101-containing ECHS1 peptide in an NAD^+-dependent manner in vitro |  |
| B1 |  | 360 ± 180 µM |
| B2 |  | 300 ± 80 µM |
| B3 |  | 740 ± 430 µM |
